Measured values published in patent US20130157934A1 (INDIANA UNIVERSITY RESEARCH AND TECHNOLOGY, published 2013).
Like-named read-outs stand apart in the source and are kept apart here. Starred links: 1 amine or outer side, 2 acyl side, 3 side chain; linkers in the order of their positions; H or OH if unused. Positions of bridges follow the written chain, without caps; N, C: chain ends. Non-standard residues stand in square brackets, D forms with d. Groups on a side chain read outwards from the residue. No end group written: not given here. estradiol (3-ether, amide-linked) = estradiol attached through its 3-position ether, via an amide; PhLac = O=C(O)[C@@H](O)Cc1ccccc1; Suc = O=C(CCC(=O)[*:2])[*:1]; Aib = CC(C)(N)C(=O)O

Columns and labels:
Test in all cases: cell-based or functional assay
GLP-1 receptor [1] = target: GLP-1 receptor (UniProt P43220)
Chain of GLP-1 receptor (UniProt P43220) (P43220 24-463 limits assumed): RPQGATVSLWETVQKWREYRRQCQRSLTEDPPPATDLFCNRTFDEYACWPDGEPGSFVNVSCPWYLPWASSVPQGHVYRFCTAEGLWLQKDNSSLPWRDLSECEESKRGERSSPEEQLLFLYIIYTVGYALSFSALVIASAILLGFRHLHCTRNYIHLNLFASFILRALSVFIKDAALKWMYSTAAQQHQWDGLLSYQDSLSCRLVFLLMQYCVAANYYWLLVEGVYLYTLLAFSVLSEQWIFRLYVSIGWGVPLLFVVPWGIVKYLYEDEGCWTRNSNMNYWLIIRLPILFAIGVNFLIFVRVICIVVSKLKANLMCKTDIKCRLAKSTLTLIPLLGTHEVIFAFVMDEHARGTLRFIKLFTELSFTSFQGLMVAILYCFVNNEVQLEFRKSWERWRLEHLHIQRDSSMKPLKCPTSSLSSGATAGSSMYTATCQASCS

glucagon receptor [2] = target: glucagon receptor (UniProt P47871)
Chain of glucagon receptor (UniProt P47871) (P47871 26-477 limits assumed): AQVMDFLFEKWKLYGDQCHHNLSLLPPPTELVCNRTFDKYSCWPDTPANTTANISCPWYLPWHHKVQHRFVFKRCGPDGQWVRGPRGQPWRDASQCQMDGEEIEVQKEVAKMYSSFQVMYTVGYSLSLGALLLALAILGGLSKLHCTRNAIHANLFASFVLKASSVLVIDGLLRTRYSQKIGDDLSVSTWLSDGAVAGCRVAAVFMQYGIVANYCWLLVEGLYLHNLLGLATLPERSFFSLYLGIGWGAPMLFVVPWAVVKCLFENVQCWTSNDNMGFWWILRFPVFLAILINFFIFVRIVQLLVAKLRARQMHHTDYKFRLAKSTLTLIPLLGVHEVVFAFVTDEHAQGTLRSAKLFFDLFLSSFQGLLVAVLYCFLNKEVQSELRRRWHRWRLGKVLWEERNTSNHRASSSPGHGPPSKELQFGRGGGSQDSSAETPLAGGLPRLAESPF

glucagon receptor [3] = target: glucagon receptor (UniProt P47871); remark: listed apart in the source
GLP-1 receptor [4] = target: T1, GLP-1 receptor (UniProt P43220 24-463, limits assumed)
Target sequence in this assay (P43220 24-463 limits assumed): as the sequence (P43220 24-463 limits assumed) above

GLP-1 receptor [5] = target: T1, GLP-1 receptor; remark: listed apart in the source
glucagon receptor [6] = target: T2, glucagon receptor (UniProt P47871 26-477, limits assumed)
T2 sequence (P47871 26-477 limits assumed): as the sequence (P47871 26-477 limits assumed) above

glucagon receptor [7] = target: T2, glucagon receptor; remark: listed apart in the source
GLP-1 receptor [8] = target: T1, GLP-1 receptor; remark: listed apart in the source
glucagon receptor [9] = target: T2, glucagon receptor; remark: listed apart in the source
GLP-1 receptor [10] = target: T1, GLP-1 receptor; remark: listed apart in the source
glucagon receptor [11] = target: T2, glucagon receptor; remark: listed apart in the source
GLP-1 receptor [12] = target: T1, GLP-1 receptor; remark: listed apart in the source
Target sequence in this assay (P43220 24-463 limits assumed): as the sequence (P43220 24-463 limits assumed) above

glucagon receptor [13] = target: T2, glucagon receptor; remark: listed apart in the source
GLP-1 receptor [14] = target: T1, GLP-1 receptor; remark: listed apart in the source
Target sequence in this assay (P43220 24-463 limits assumed): as above

B1: [PLA6, E9, K12E16(Lactam)] glucagon(6-39) Cex peptide (peptide)
peptide: XTSEYSKYLDERRAQDFVQWLMNTGPSSGAPPPS
modifications: not fully specified; X1 = PLA (phenyl lactic acid in place of Phe 6 of glucagon); lactam bridge K12-E16 (glucagon numbering; residues 7 and 11 of this chain)
GLP-1 EC50 (GLP-1 receptor [1]): 6 nM
Glucagon IC50 (glucagon receptor [2]): 72 nM
Glu IC50 (glucagon receptor [3]): 72 nM

B2: Inactive GLP-1 (d-amino acid containing)/Estrogen(3-ether) (peptide)
peptide: [dA][Aib][dE]G[dT][dF][dT][dS][dD][dV][dS][dS][dY][dL][dE]G[dQ][dA][dA][dK][dE][dA][dI][dA][dW][dL][dV][dK]GG[dP][dS][dS]G[dA][dP][dP][dP][dS]K(estradiol (3-ether, amide-linked))-NH2
GLP-1 EC50 (cAMP induction, CRE-luciferase in HEK293 cells) (GLP-1 receptor [4]): 418 nM

B3: ANK2 (Bayer peptide) (peptide)
peptide: HSQGTFTSDYARYLDARRAREFIKWLVRGRG
GLP-1 EC50 (GLP-1 receptor [5]): 0.28 nM

B4: [PLA6, D9, E16K20(lactam), D28]G(6-29) (peptide)
peptide: [PhLac]TSDYSKYLDERRAKDFVQWLMDT-NH2
modifications: lactam 11-15
Glucagon IC50 (glucagon receptor [6]): 10 to 30 nM
Glucagon IC50 (glucagon receptor [7]): 6 nM
GLP-1 EC50 (GLP-1 receptor [8]): 4 nM

B5: D9, K12E16(Lactam) glucagon(6-39) Cex peptide (peptide)
peptide: FTSDYSKYLDERRAQDFVQWLMNTGPSSGAPPPS-NH2
modifications: lactam 7-11; not fully specified
Glucagon IC50 (glucagon receptor [7]): 828 nM
GLP-1 EC50 (GLP-1 receptor [8]): 18 nM
Glu IC50 (glucagon receptor [9]): 828 nM
GLP-1 EC50 (GLP-1 receptor [10]): 119 nM

B6: E9, E16K20(lactam) glucagon(6-39) Cex peptide (peptide)
peptide: FTSEYSKYLDERRAKDFVQWLMNTGPSSGAPPPS-NH2
modifications: lactam 11-15; N-terminus assumed
SMILES: CSCC[C@H](NC(=O)[C@H](CC(C)C)NC(=O)[C@H](Cc1c[nH]c2ccccc12)NC(=O)[C@H](CCC(N)=O)NC(=O)[C@@H](NC(=O)[C@H](Cc1ccccc1)NC(=O)[C@H](CC(=O)O)NC(=O)[C@@H]1CCCCNC(=O)CC[C@H](NC(=O)[C@H](CC(=O)O)NC(=O)[C@H](CC(C)C)NC(=O)[C@H](Cc2ccc(O)cc2)NC(=O)[C@H](CCCCN)NC(=O)[C@H](CO)NC(=O)[C@H](Cc2ccc(O)cc2)NC(=O)[C@H](CCC(=O)O)NC(=O)[C@H](CO)NC(=O)[C@@H](NC(=O)[C@@H](N)Cc2ccccc2)[C@@H](C)O)C(=O)N[C@@H](CCCNC(=N)N)C(=O)N[C@@H](CCCNC(=N)N)C(=O)N[C@@H](C)C(=O)N1)C(C)C)C(=O)N[C@@H](CC(N)=O)C(=O)N[C@H](C(=O)NCC(=O)N1CCC[C@H]1C(=O)N[C@@H](CO)C(=O)N[C@@H](CO)C(=O)NCC(=O)N[C@@H](C)C(=O)N1CCC[C@H]1C(=O)N1CCC[C@H]1C(=O)N1CCC[C@H]1C(=O)N[C@@H](CO)C(N)=O)[C@@H](C)O
Glucagon IC50 (glucagon receptor [7]): 42 nM
GLP-1 EC50 (GLP-1 receptor [8]): 36 nM
Glu IC50 (glucagon receptor [9]): 42 nM
GLP-1 EC50 (GLP-1 receptor [10]): 36 nM

B7: [E9, E16K20(lactam), D28]G(4~29) (peptide)
peptide: GTFTSEYSKYLDERRAKDFVQWLMDT-NH2
modifications: lactam 13-17; N-terminus assumed
SMILES: CSCC[C@H](NC(=O)[C@H](CC(C)C)NC(=O)[C@H](Cc1c[nH]c2ccccc12)NC(=O)[C@H](CCC(N)=O)NC(=O)[C@@H](NC(=O)[C@H](Cc1ccccc1)NC(=O)[C@H](CC(=O)O)NC(=O)[C@@H]1CCCCNC(=O)CC[C@H](NC(=O)[C@H](CC(=O)O)NC(=O)[C@H](CC(C)C)NC(=O)[C@H](Cc2ccc(O)cc2)NC(=O)[C@H](CCCCN)NC(=O)[C@H](CO)NC(=O)[C@H](Cc2ccc(O)cc2)NC(=O)[C@H](CCC(=O)O)NC(=O)[C@H](CO)NC(=O)[C@@H](NC(=O)[C@H](Cc2ccccc2)NC(=O)[C@@H](NC(=O)CN)[C@@H](C)O)[C@@H](C)O)C(=O)N[C@@H](CCCNC(=N)N)C(=O)N[C@@H](CCCNC(=N)N)C(=O)N[C@@H](C)C(=O)N1)C(C)C)C(=O)N[C@@H](CC(=O)O)C(=O)N[C@H](C(N)=O)[C@@H](C)O
Glucagon IC50 (glucagon receptor [6]): 10 to 30 nM
GLP-1 EC50 (GLP-1 receptor [5]): 151 nM

B8: [A2E3, E16K20(Lactam), D28]G(1~29) (peptide)
peptide: HAEGTFTSEYSKYLDERRAKDFVQWLMDT-NH2
modifications: lactam 16-20; N-terminus assumed
SMILES: CSCC[C@H](NC(=O)[C@H](CC(C)C)NC(=O)[C@H](Cc1c[nH]c2ccccc12)NC(=O)[C@H](CCC(N)=O)NC(=O)[C@@H](NC(=O)[C@H](Cc1ccccc1)NC(=O)[C@H](CC(=O)O)NC(=O)[C@@H]1CCCCNC(=O)CC[C@H](NC(=O)[C@H](CC(=O)O)NC(=O)[C@H](CC(C)C)NC(=O)[C@H](Cc2ccc(O)cc2)NC(=O)[C@H](CCCCN)NC(=O)[C@H](CO)NC(=O)[C@H](Cc2ccc(O)cc2)NC(=O)[C@H](CCC(=O)O)NC(=O)[C@H](CO)NC(=O)[C@@H](NC(=O)[C@H](Cc2ccccc2)NC(=O)[C@@H](NC(=O)CNC(=O)[C@H](CCC(=O)O)NC(=O)[C@H](C)NC(=O)[C@@H](N)Cc2c[nH]cn2)[C@@H](C)O)[C@@H](C)O)C(=O)N[C@@H](CCCNC(=N)N)C(=O)N[C@@H](CCCNC(=N)N)C(=O)N[C@@H](C)C(=O)N1)C(C)C)C(=O)N[C@@H](CC(=O)O)C(=O)N[C@H](C(N)=O)[C@@H](C)O
Glucagon IC50 (glucagon receptor [6]): 130 nM
GLP-1 EC50 (GLP-1 receptor [5]): 0.2 nM

B9: [PLA6, D9, E16, K20E24(Lactam), D28]G(6-29) (peptide)
peptide: [PhLac]TSDYSKYLDERRAKDFVEWLMDT-NH2
modifications: lactam 15-19; N-terminus assumed
SMILES: CSCC[C@H](NC(=O)[C@H](CC(C)C)NC(=O)[C@H](Cc1c[nH]c2ccccc12)NC(=O)[C@@H]1CCC(=O)NCCCC[C@H](NC(=O)[C@H](C)NC(=O)[C@H](CCCNC(=N)N)NC(=O)[C@H](CCCNC(=N)N)NC(=O)[C@H](CCC(=O)O)NC(=O)[C@H](CC(=O)O)NC(=O)[C@H](CC(C)C)NC(=O)[C@H](Cc2ccc(O)cc2)NC(=O)[C@H](CCCCN)NC(=O)[C@H](CO)NC(=O)[C@H](Cc2ccc(O)cc2)NC(=O)[C@H](CC(=O)O)NC(=O)[C@H](CO)NC(=O)[C@@H](NC(=O)[C@@H](O)Cc2ccccc2)[C@@H](C)O)C(=O)N[C@@H](CC(=O)O)C(=O)N[C@@H](Cc2ccccc2)C(=O)N[C@@H](C(C)C)C(=O)N1)C(=O)N[C@@H](CC(=O)O)C(=O)N[C@H](C(N)=O)[C@@H](C)O
Glucagon IC50 (glucagon receptor [11]): 74 nM
GLP-1 EC50 (GLP-1 receptor [12]): 239 nM

B10: E9, K12, E16 glucagon(6-39) Cex peptide (peptide)
peptide: FTSEYSKYLDERRAQDFVQWLMNTGPSSGAPPPS-NH2
Glucagon IC50 (glucagon receptor [7]): 762 nM
Glu IC50 (glucagon receptor [9]): 762 nM

B11: [A2E3, E16K20(Lactam), D28]G(2~29) (peptide)
peptide: AEGTFTSEYSKYLDERRAKDFVQWLMDT-NH2
modifications: lactam 15-19
Glucagon IC50 (glucagon receptor [6]): 63 nM

B12: [PLA6, D9, E16, E24K28(lactam)]G(6~29) (peptide)
peptide: [PhLac]TSDYSKYLDERRAQDFVEWLMKT-NH2
modifications: lactam 19-23; N-terminus assumed
SMILES: CSCC[C@@H]1NC(=O)[C@H](CC(C)C)NC(=O)[C@H](Cc2c[nH]c3ccccc23)NC(=O)[C@@H](NC(=O)[C@@H](NC(=O)[C@H](Cc2ccccc2)NC(=O)[C@H](CC(=O)O)NC(=O)[C@H](CCC(N)=O)NC(=O)[C@H](C)NC(=O)[C@H](CCCNC(=N)N)NC(=O)[C@H](CCCNC(=N)N)NC(=O)[C@H](CCC(=O)O)NC(=O)[C@H](CC(=O)O)NC(=O)[C@H](CC(C)C)NC(=O)[C@H](Cc2ccc(O)cc2)NC(=O)[C@H](CCCCN)NC(=O)[C@H](CO)NC(=O)[C@H](Cc2ccc(O)cc2)NC(=O)[C@H](CC(=O)O)NC(=O)[C@H](CO)NC(=O)[C@@H](NC(=O)[C@@H](O)Cc2ccccc2)[C@@H](C)O)C(C)C)CCC(=O)NCCCC[C@@H](C(=O)N[C@H](C(N)=O)[C@@H](C)O)NC1=O
Glucagon IC50 (glucagon receptor [11]): 22 nM
GLP-1 EC50 (GLP-1 receptor [12]): 289 nM

B13: Inactive GLP-1 (d-amino acid containing)/Estrogen(3-ester) (peptide)
peptide: [dA][Aib][dE]G[dT][dF][dT][dS][dD][dV][dS][dS][dY][dL][dE]G[dQ][dA][dA][dK][dE][dA][dI][dA][dW][dL][dV][dK]GG[dP][dS][dS]G[dA][dP][dP][dP][dS]K([Suc-estradiol])-NH2
GLP-1 EC50 (cAMP induction, CRE-luciferase in HEK293 cells) (GLP-1 receptor [4]): 562 nM

B14: [PLA6, D9, K12E16(Lactam), D28]G(6-29) (peptide)
peptide: [PhLac]TSDYSKYLDERRAQDFVQWLMDT-NH2
modifications: lactam 7-11; not fully specified
Glucagon IC50 (glucagon receptor [13]): 13 nM
GLP-1 EC50 (GLP-1 receptor [14]): 21 nM
Glucagon IC50 (glucagon receptor [11]): 63 nM
GLP-1 EC50 (GLP-1 receptor [12]): 177 nM

B15: E9, K12E16(lactam) glucagon(6-39) Cex peptide (peptide)
peptide: FTSEYSKYLDERRAQDFVQWLMNTGPSSGAPPPS-NH2
modifications: lactam 7-11; N-terminus assumed
SMILES: CSCC[C@H](NC(=O)[C@H](CC(C)C)NC(=O)[C@H](Cc1c[nH]c2ccccc12)NC(=O)[C@H](CCC(N)=O)NC(=O)[C@@H](NC(=O)[C@H](Cc1ccccc1)NC(=O)[C@H](CC(=O)O)NC(=O)[C@H](CCC(N)=O)NC(=O)[C@H](C)NC(=O)[C@H](CCCNC(=N)N)NC(=O)[C@H](CCCNC(=N)N)NC(=O)[C@@H]1CCC(=O)NCCCC[C@H](NC(=O)[C@H](CO)NC(=O)[C@H](Cc2ccc(O)cc2)NC(=O)[C@H](CCC(=O)O)NC(=O)[C@H](CO)NC(=O)[C@@H](NC(=O)[C@@H](N)Cc2ccccc2)[C@@H](C)O)C(=O)N[C@@H](Cc2ccc(O)cc2)C(=O)N[C@@H](CC(C)C)C(=O)N[C@@H](CC(=O)O)C(=O)N1)C(C)C)C(=O)N[C@@H](CC(N)=O)C(=O)N[C@H](C(=O)NCC(=O)N1CCC[C@H]1C(=O)N[C@@H](CO)C(=O)N[C@@H](CO)C(=O)NCC(=O)N[C@@H](C)C(=O)N1CCC[C@H]1C(=O)N1CCC[C@H]1C(=O)N1CCC[C@H]1C(=O)N[C@@H](CO)C(N)=O)[C@@H](C)O
Glucagon IC50 (glucagon receptor [7]): 2010 nM
GLP-1 EC50 (GLP-1 receptor [8]): 63 nM
Glu IC50 (glucagon receptor [9]): 2010 nM
GLP-1 EC50 (GLP-1 receptor [10]): 63 nM
